Earlier results on one substance are cited in patent US12305200B2, “Methods and compositions for vault nanoparticle immobilization of therapeutic molecules and for vault targeting” (AUKERA, INC., priority 2017, dated 2025).

This data set has as its target GRP-R (Homo sapiens, UniProt P30550). Particulars: Accardo et al., EJNMMI Research 2016.

Chain of GRP-R (P30550 whole entry): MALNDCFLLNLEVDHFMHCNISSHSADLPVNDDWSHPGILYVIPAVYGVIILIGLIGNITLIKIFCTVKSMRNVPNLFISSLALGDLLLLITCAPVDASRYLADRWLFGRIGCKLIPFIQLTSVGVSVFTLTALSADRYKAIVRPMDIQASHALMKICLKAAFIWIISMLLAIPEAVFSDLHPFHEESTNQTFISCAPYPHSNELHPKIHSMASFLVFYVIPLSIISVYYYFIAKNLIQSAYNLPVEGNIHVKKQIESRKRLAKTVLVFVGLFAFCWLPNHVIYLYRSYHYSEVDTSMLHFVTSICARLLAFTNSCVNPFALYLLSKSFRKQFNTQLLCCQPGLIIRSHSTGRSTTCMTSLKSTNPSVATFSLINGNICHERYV

For “Gin-Trp-Ala-Val-Gly-His-Leu-Met (SEQ ID NO.: 3)-NH2 [8-amino acid peptide of the ligand GRP]”, the “affinity for the GRP-R” value is “has been found to have affinity”.
